Experimental data published in article PMC4190666.

Molecular target: TAB1 (full length, 60-kDa isoform) (human (endogenous in primary CD4+ T cells)) (UniProt Q15750)
Assay: co-IP

Chain of UniProt Q15750 (Q15750 whole entry, canonical isoform): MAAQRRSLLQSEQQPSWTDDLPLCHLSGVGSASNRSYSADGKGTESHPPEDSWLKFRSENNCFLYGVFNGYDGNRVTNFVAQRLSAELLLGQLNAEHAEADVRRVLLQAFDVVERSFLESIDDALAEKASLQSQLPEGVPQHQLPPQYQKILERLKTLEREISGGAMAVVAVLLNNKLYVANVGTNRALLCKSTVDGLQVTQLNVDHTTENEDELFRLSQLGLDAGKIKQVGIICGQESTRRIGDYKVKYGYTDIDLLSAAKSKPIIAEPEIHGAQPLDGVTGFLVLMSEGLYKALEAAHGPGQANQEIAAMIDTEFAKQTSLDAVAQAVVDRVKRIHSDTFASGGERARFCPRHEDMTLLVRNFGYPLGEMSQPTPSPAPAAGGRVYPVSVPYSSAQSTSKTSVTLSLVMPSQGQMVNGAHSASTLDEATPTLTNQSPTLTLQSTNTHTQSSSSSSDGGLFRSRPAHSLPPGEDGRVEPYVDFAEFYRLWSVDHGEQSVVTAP

fold increase of p38 in TAB1 immunoprecipitates with A-769662 over DMSO control: 2.5 to 3 fold
Substance: p38 MAP kinase (total p38) (from UniProt Q16539 1-360) (enzyme)
